Test results taken from publication PMC4843017 (2016).
Like-named read-outs stand apart in the source and are kept apart here. Values belong to the binder of their own block, whether it stands above or below them.

How the values were obtained:
[1] = molecular target: T1, taxol-stabilized microtubules (α-/β-tubulin) (bovine, UniProt P81947 1-451; Q6B856 1-445)
[2] = molecular target: T1, taxol-stabilized microtubules …; remark: listed apart in the source

T1 sequence (P81947 whole entry, chain 1 of 2): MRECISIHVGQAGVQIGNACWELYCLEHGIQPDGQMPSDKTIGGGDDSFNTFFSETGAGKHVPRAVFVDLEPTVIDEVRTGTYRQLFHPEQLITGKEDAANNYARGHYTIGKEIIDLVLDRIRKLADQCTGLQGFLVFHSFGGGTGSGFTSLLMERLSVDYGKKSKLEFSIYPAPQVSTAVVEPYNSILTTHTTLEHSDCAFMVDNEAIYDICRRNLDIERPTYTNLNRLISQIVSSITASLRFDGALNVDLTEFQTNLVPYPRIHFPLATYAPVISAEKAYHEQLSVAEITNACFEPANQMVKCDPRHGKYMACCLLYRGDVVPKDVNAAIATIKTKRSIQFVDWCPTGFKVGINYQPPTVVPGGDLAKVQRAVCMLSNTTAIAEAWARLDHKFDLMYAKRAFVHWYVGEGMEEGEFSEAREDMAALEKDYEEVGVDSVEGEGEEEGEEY
T1 sequence (Q6B856 whole entry, chain 2 of 2): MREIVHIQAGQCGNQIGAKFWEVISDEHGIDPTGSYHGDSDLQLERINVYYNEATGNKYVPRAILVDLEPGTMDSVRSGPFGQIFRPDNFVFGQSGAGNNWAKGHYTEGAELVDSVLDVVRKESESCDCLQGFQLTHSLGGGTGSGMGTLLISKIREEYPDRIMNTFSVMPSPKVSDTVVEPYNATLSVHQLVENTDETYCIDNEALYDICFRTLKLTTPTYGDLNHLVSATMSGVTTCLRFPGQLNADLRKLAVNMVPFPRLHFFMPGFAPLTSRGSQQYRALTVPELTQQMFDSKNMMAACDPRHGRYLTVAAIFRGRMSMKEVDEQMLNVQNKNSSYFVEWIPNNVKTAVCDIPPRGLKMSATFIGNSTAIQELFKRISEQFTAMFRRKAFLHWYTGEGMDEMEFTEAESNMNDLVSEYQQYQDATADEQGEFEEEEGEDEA

- Kd [1]: 1620 nM
B1: SKAP^159–316 (expressed alone in E. coli) (domain or fragment)
chain: VRKGYKPLSKQKSEEELKDKNQLLEAVNKQLHQKLTETQGELKDLTQKVELLEKFRDNCLAILESKGLDPALGSETLASRQESTTDHMDSMLLLETLQEELKLFNETAKKQMEELQALKVKLEMKEERVRFLEQQTLCNNQVNDLTTALKEMEQLLEM

- Kd [2]: 1100 nM
B2: SKAP^103–225 (domain or fragment)
chain: TQTRATSKSLLPVRSKEVDVSKQLHSGGPENDVTKITKLRRENGQMKATDTATRRNVRKGYKPLSKQKSEEELKDKNQLLEAVNKQLHQKLTETQGELKDLTQKVELLEKFRDNCLAILESKG
